Measured values: publication PMC11410943

Substrate: Cn1c(=O)ccc2ccc(F)c(CCNC[C@H]3CN(c4cnc5c(n4)NC(=O)CO5)C(=O)O3)c21
Test: OAT3 transport in HEK293 cells
Assay type: in vitro ADME, human
Conditions: other: HEK293; 37.0 °C

B1: OAT3 (Homo sapiens) (protein)
chain: MTFSEILDRVGSMGHFQFLHVAILGLPILNMANHNLLQIFTAATPVHHCRPPHNASTGPWVLPMGPNGKPERCLRFVHPPNASLPNDTQRAMEPCLDGWVYNSTKDSIVTEWDLVCNSNKLKEMAQSIFMAGILIGGLVLGDLSDRFGRRPILTCSYLLLAASGSGAAFSPTFPIYMVFRFLCGFGISGITLSTVILNVEWVPTRMRAIMSTALGYCYTFGQFILPGLAYAIPQWRWLQLTVSIPFFVFFLSSWWTPESIRWLVLSGKSSKALKILRRVAVFNGKKEEGERLSLEELKLNLQKEISLAKAKYTASDLFRIPMLRRMTFCLSLAWFATGFAYYSLAMGVEEFGVNLYILQIIFGGVDVPAKFITILSLSYLGRHTTQAAALLLAGGAILALTFVPLDLQTVRTVLAVFGKGCLSSSFSCLFLYTSELYPTVIRQTGMGVSNLWTRVGSMVSPLVKITGEVQPFIPNIIYGITALLGGSAALFLPETLNQPLPETIEDLENWSLRAKKPKQEPEVEKASQRIPLQPHGPGLGSS
With B1 the Km was 121 µM and the Vmax was 76.1 pmol/mg/min.
